Article PMC12520519 (2025)

Molecular target: receptor binding domain (RBD) of the SARS-CoV-2 spike protein, WT (SARS-CoV-2, UniProt P0DTC2)
Experiment: FACS

B1: Delta-6 scFv (scFv, V domains shown)
VH: EVQLLESGGGLVQPGGTLRLSCAASGFIVSSNYMSWVRQAPGKGLEWVSLVYPGGSTYYADSVKGRFTVSRDNSKNTLYLQMNSLRAEDMAVYYCARDLPSGVDAVDAFDIWGQGTMVTVSS
VL: DIRVTQSPSSLSASVGDRVSITCRASQIISGYLNWYQQKPGSAPQLLIYASSSLQSGVPPRFSGSRSGTEFTLTISSLQPEDFATYYCQQTYSIPFTFGPGTKVDIK
Work on B1 yielded a Kd of 6.3 nM.
